Molecular target: Ferritin-H (ferritin heavy chain) (Homo sapiens) (UniProt P02794)
Assay: cell_activity
Conditions: CV-1 cells, EKLF-stimulated beta-CAT reporter

Sequence of Ferritin-H (ferritin heavy chain) (Homo sapiens) (P02794 2-183): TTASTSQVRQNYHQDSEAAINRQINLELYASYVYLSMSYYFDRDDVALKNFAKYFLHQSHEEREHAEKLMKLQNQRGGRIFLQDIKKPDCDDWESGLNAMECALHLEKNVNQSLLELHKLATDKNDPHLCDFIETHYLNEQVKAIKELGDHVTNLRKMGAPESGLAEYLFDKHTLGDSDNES

Question: For beta-globin 5' region -610/+20 (630 bp), which activity is on record?
Answer: Its activity is 62 % repression.
